In this data set the target is T1, CD5L (AIM) (Homo sapiens, UniProt O43866 20-347).
T1 sequence: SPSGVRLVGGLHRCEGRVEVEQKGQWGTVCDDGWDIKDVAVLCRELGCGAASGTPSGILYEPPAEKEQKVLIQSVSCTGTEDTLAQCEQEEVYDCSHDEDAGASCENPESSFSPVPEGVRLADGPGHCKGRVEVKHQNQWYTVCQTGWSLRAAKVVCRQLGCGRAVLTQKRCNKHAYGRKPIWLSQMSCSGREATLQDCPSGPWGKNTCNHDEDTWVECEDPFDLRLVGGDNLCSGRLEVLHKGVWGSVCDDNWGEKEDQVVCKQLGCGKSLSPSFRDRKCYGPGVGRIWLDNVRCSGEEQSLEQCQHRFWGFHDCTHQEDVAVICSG
The experiment in a line: MST; Cy5-S76.T 2 nM, CD5L titrated; MST: S11/S23 in binding buffer pH 7.4, 1 mM MgCl2, 0.1% Tween 20, 1 nM labelled protein; S76 in TBS; S76.T (Cy5, 2 nM) in 50 mM Tris-HCl pH 7.8, 150 mM NaCl, 0.05% Tween 20; temperature not stated. The note with it: protein: commercial; tags: His-tag; label: Cy5; hairpin.

B1: S76.T (structured_RNA)
RNA: AGGUUGCAGCGUUCGACAGGAGGCUCACAACAG
modifications: 2'-fluoro pyrimidines
As for B1, binding was characterised by a dissociation constant (Kd) of 0.0101 ± 0.0023 µM.

Values taken from PMC10133315, “Overcoming adaptive resistance to anti-VEGF therapy by targeting CD5L”.
